Reference: publication PMC4262734

Molecular target: HA-Cdk2 (UniProt P24941)
Assay: co-IP; HeLa cells co-overexpressing wild-type or mutant Flag-p27Xic1 with HA-Cdk2; binding quantified against wild type (mean ± SEM)

increase of binding against wild-type p27Xic1 [%]	reduction of binding against wild-type p27Xic1 [%]	Substance
140	–	Flag-p27Xic1 T68A (natural protein)
–	50	Flag-p27Xic1 T68E (natural protein)
